The nanobody polyreactivity screen of Harvey et al. (2022)

assay: yeast display, Sf9 membrane polyspecificity reagent, FACS + sequencing; frameworks hold sequencing errors
Procedure, shortened: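 Genes from sorted yeast were amplified by colony PCR, read by MiSeq 2 × 250 sequencing and filtered on CDR length. These cells carried a synthetic nanobody library in Saccharomyces cerevisiae BJ5465 and were sorted by FACS into low and high (top ~1%) gates on anti-HA and streptavidin fluorescence. Polyreactivity is labelled according to the gate of origin.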

| Sequence | polyreactivity (PSR sort gate) |
| --- | --- |
| QVQLVESGGGLVQAGGSLRLSCAASGSTLTSNAMGWYRQAPGKERELVAAIRSGGSTNYADSVKGRFTISRDNAKNTVYLQMNSLKPEDTAVYYCNKDVLWQGYGYSRVSYDYWGQGTQVTVSS | low polyreactivity |
| QVHLVESGGGLVQAGGSLRLSCAATGSTFAHNDMGWYRQAPGKERELVAAITWGDSSTYYADSVKGRFTISRDNAKNTVYLQMNSLKPEDTAVYYCAKDYGFTGYGYWGQGTQVTVSS | low polyreactivity |
| QVQLVESGGGLVQAGGSLRLSCAASGRTYYPNAIGWYRQAPGKEMDLVADITYSGASTYYADSVKGRFTISRDNAKNTVYLQMNSLKPEDTAVYYCAVPGATSYFAYDSWGQGTQVTVSS | low polyreactivity |
| QVQLVESGGGLVQAGGSLRLSCAASGSIFVDNAMGWYRQAPGKETQLVAAIRSRDTSTYYADSVKGRFSISLDNAKNTVYLQMNSLKPEDTAVYYCAARTSKRVSQYNYWGQGTQVTVSS | high polyreactivity |
| QVQLVESGGGLVQAGGSLRLSCAASGITFSRNAMGWSRQARGKERELVAAISRGGSTNYADSVKGRFTISRDNAKNTVYLQMNSLKPEDTAVYYCNAPGYLSWRFYGVKRNYWGQGTQVTVSS | high polyreactivity |
| QVQLVESGGGLVQAGGSLRLSCAASGSIFHPNAMGWYRQAPGKERELVAAISIGGDTYYADSVKGRFTISRDNAKNTVYLQMNSLKPEDTAVYYCAVTYVGHVYEYYYWGQGTQVTVSS | low polyreactivity |
| QVQLVESGGGLVQAGGTLRLSCAPSGRTFKRYAMGWYRQAPGKERELVAAISSGGSTYADSVKGRFTISRDNAKNTVYLHMNSLKTEDTAVYYCAARYRSYPERYNYWGQGTQGTVSS | high polyreactivity |
| QVQLVESGGGLVQAGGSLRLSCAASGGTFAIYVKGWYRLAPGKERELVAAITRVGSTYADSVKGRFTISRDNAKNTVYLQMNSLKPEDTAVYYCAAVSGVRSGPWRYDYLGQGTQVTVSS | high polyreactivity |
| QVQLVESGGGLVQAGGSLSLSSAATGSNFGRNAMGWYRQATGKEREFVAAISQRGGRTYYSDSVKGRFTISRDNAKNTVYLQMNSLKPEETAVYYCAATYTRVPNRFYYWGQGTQVTVSS | high polyreactivity |
| QVQLVESGGGLVQAGGSLRLSCAASGSIFAVNAMGWYRPAPGKERELVAAITSGGITYYADSVKGRFTISRDNAKNTVYLQMNSLKPEDTAVYYCATVFSVQGWYFGMNYWGQGTQVTVSS | low polyreactivity |
| QVQLVESGGGLVQAGGSLRLSCAASGSIIPVYAMGWDRQAPGKVRQLVAAISSRGGRTYYADSVKGRFKISRDNAKNTVYLQMNSLKPEDTAVYYCASVYATYYRLPSQYDYWGQGTQVTVSS | low polyreactivity |
| QVQLVESGRGLFQAGGSLRLSCAASGSIFYSYAMGWYRQAPGKERELVAAISRSGGSTYYADSVKGRFTISRDNAKNTVYLQMNSLKPEDTAVYYCAAKNTGRYYWGLGTQVTVSS | high polyreactivity |
| QVQLVDSGGGLVQAGGSLRLSCAASGRIFYAYDMGWYRQAPGKERELVADITSSGSTNYADSVKGRFTISRDNAKNTVYLQMNSLKPEDTAVYYCNTEPSGYESGYWGQGTQVTVSS | low polyreactivity |
| QVQLVESGGGLVQAGGSLRLSCAASGFIFYLYAMGWYRQAPGKERELVAAISWSGGITYYADSVKGRFTISRDNAKNTVYLQMNSLKPEDTAVYYCNAVGASASDGDYWGQGTQVTVSS | high polyreactivity |
| QVQVVESVGGLVHAGCSLRLSCAASGRTFISNAMGWYRQAPGKERELVATITYSDATTYYADSVKGRFTISRDNAKNTVYLQMNSLKPEDTAVYYCIAQSRSYDRYISAGRRYDYWGQGTQVTVSS | low polyreactivity |
| QVQLVESGGGLVQAGGSLRLSCAASGSTFQTYAMGWYRQAPGKERELLAAINWRSGSTYYADSVKGRFTISRDNAKNTVYLQMNSLTPEDTAVSYCAAELDFSPGYYYLYDYWGQGTQVTVSS | low polyreactivity |
| QVQLLESGGGLVQAGGSLRISCASSGRTFSSNTMGRYRQAPGKERELVAAISSTDSTYYADSVKGRYTISRDNAKNTVYLQMNSLKPEDTAVYYCAKRPTRRYGYWGQGTQVTVSS | high polyreactivity |
| QVQLVESGGGLVQAGGSLRLSCAASGLIFADYVMGWYRQAPGKERELVATINQGGGSTYYADSVKGRFTISRDNAKNTVYLQMNSLIPEDTAVYYCAATWALLYAIFESYDYWGQGTQVTVSS | low polyreactivity |
| QVQLVESGGGLVQAGGSLRLNSAASGSIFYRYAMRWYRQAPGKERELVAAISSNGGRTYYADSVKGRFTISRDNSKNTVYLQMNSLKPEDTAVYYCATLPGYSMDYWGQGTQVTVSS | high polyreactivity |
| QVQLVESGGGLVQAGGSLRLSCAASGITFFRNARGWYRQAPGKEREFVATISRSSGSTYADSVKGRFTISRDNAKNTVYLQMNSLKPEDTAVYYCAAERTYSDSLSFDHWGQGTQVTVSS | low polyreactivity |
| QVQLVESGGGLVQAGGSLRLSCAASGFTFYGNAMGWYRQAPGKERELVAAISGRGGSTYYADSVKGRFTISRDNAKNTVYLQMNSLKPEVTAVYYCAIYVSWPLYYYWGQGTQVTVSS | low polyreactivity |
| QVQLVESGGGLVQAGGSLRLSCAASGFTFYRYTMGWYRQAPGKERELVAAITNTDSTNYADSVKGRFTISRDNAKNTVYLQMNSLKPEDTAVYYCNAAYVWYRIFVRRDYWGQGTQVTVSS | high polyreactivity |

| Sequence | polyreactivity (PSR sort gate) |
| --- | --- |
| QVQLVESGGGLVQAGGSLRLSCAASGIILSDNAMGWYRQAPGKEREFVAAITGSCGSTYYADSVKGRFTISRDYAKKTDDLQMNSLKPEDTAVYYCSADGPFGYYYGHYGYWGQVTQVTVSS | low polyreactivity |
| QVQLVESGVGLVQAGGSLRLSCAASGLIFYRYAMGWNRQAPGKERELVAAISWSGGTTYYADSVKGRFTISRDNAKNTVYLQMNSLKPEDTAVYYCAATRLRTEYYWGQGTQVTVSS | high polyreactivity |
| QVQLVESGGGLVQAGGSLRLSCAASGRIFSLYAMGWYRQAPGKEREFVAAISKSSGGTYYADSVKGRFTISRDNAKNTVYLQMNSLKPKDTAVYYCNARFVIGWVRKLDYWGQGTQVTVSS | high polyreactivity |
| QVQLVESGGGLVQEGGSLRLSCAASGGTFYVNDMGWYRQAPGKERELVATITSGDSTNYADSVKGRFTISRDNAKNTVYLQRNCLKPEDTAVYYCNARGDVIVTPPKFSFNYVYWGQGTQVTVSS | low polyreactivity |
| QVQLVESGGGLVQAGGSLRLSCAPSGRIFRTNTMGWYRQAPGKERELVAAITRGGSTYYADSVKGRFTISRDNAKNTDYLQMKSLKPEDTAVYYCAASRYYNTVHNGGDYWGQGTQVTVSS | high polyreactivity |
| QVQLVESGGGLVQAGGSLRLSCAASGSIIVWNAMGWYRQAPGKERELVASITSGASTYYADSVKGRFTISRDNAKNTVYLQINSLKPEDTAVYYCAADPWYVAYLLDGYGMDYWGQGTLVTVSS | low polyreactivity |
| QVQLVETGGGLVQAGGSLRLSCAASGSTFYRNTKGCYRQAPGKEREFVAGISDRGTSTYYADSVKGRFTISRDNAKNTVYLQMNSLKPEDTAVYYCNKRSWPAYVHKYDYWGQGTQVTVSS | low polyreactivity |
| QVQHVESGGGLVQAGGSLRLGCPASGIIFIAYAMGWYRQAPGKERELVADISIGGSTNYADSVKGRFTISRDNAKYTVYLQMNSLKPEDTAVYYCAKRPKNKPVLGDYDHWGQGTQVTVSS | low polyreactivity |
| QVQLVESGRGLVQAGGSLRLSCAAAGSTFVSYDLGWSRQAPGKERELLADISWSGVSTDADSVKGRFTLSRDNAKNTVYLQMNSLKPEDPAVYYCAKDSDLYQRGGYYWGQGTQVTVSS | low polyreactivity |
| QVQLVESGGGLVQAGGSLRLSCAASGFNFIYYAMGWYRQAPGKERELVAAISRRGGSTYYADSVKGRFTISRDNAKNTVYLQMNSLKPEDTAVYYCAADYTSAILRSDYWGQGTQVTVSS | high polyreactivity |
| QVQLVESGGGLVQAGGSLRLSCAASGSTFVFYAMGWYRQAPGKERELVATISSGGSTYADSVKGRFTISRDNAKNTVYLQMYSLKPEDTAVYYCAADSLFGHYDYWGQGTQVTVSS | low polyreactivity |
| QVQLVESGGGLVQAGGSLRLSCAASGSTFPYNAMGWYRQAPGKEWELVAAISQSGGSTYYADSVKGRFTISRDNAKNTVYLQMNSLKPEDTAVYYCATDQSLLAHYDYWGQGTQVTVSS | low polyreactivity |
| QVQLVESGGGLVHAGCSLRLSCAASGFTFKYYAMGWYRQPPGKEREIVAAISYSGGRTYYADSVKGRFTISRDNAKNTVYLQMNSLKPEDTAVYYCATDDVWKDGYWGQGTQVTVSS | low polyreactivity |
| QAQLVESGGGLVQEGGSLRLSCAASGSIFYGYAMGWSRQAPGKERELVATIRFITGSTYYADSVKGRFTISRDNAKNTVYLQMNSLKPEDTAVYYCAAVYVGYYDNYDYWGQGTQVTVSS | low polyreactivity |
| QVQLVEAGGGLVQAGVSLRLSCAASGSIFGYNAMGWYRQAPGKERELVAAISRRGTRTYYADSVKGRFTISRDTAKNTVYLQMNSLKPEDTAVYYCNASPSLDYDYWGQGTQVTVSS | high polyreactivity |
| QVQLVESGGGLVQAGGSLRLSCAASGSTFGDNAMGWYRQAPGKERELVARISSGGNTYYADSVKGRFTISRDNAKNTVYLQMNSLKPEFTAVYYCAADIIVRYKKFPYYYWGQGTQVNVSS | high polyreactivity |
| QVQLVESGGGLVQAGGSLRLSCAASGSTFFGYAMGWYRQAPGKERELVAAIRYNGGHTYYADSVKGRFTISRDYAKNTVYLQMNRLKPEDTAVYYCAVDVVTSYYELTGSFNYWGQGTQVTVSS | low polyreactivity |
| QLQLVETGGGLVQAGGSLRLSCAASGRIYYGYAMGWYRPAPGKERELVAAISWSGGSTYYADSVKGRFTISRDNAKNTVYLQMNSLKPEDTAVYYCARDAPYLYRAFDYWGQGTQVTVSS | high polyreactivity |
| QVQLVESGAGLVQAGGSLRLTCAASGFIFRRNAMGWYRQAPGKERELVAAITTGGRTNYADSVKGRFTISRDNAKNTVYLQMNSLKPEDTPVYYCYAPVLDVIDVFYYARILFGYWGQGTQVTVSS | low polyreactivity |
| QVQLVESGGGLVQAGGSLRLSCAASGFTLIHYAMGWYRQAPGKERELVAGITTSGGSTYYADSVKGRFTISRDNAKNTVYLQMNSLKPEDTAVYYCAASSNTRGDYWGQGTQVTVSS | high polyreactivity |
| QVQLVESGGGLVQAGGSLRLSCAASGRTFRSYAMGWYRQAPGKEREFVAAISRSGASTRYADSVKGRFTISRDNAKNTVYLQMNSLKPEDTAVYYCAARYYPWKVNRFSYWYDYWGQGTQVTVSS | high polyreactivity |
